Columns and labels:
HeLa Kyoto [1] = test: solubility in G1/S (NP-40 vs SDS abundance) (log2 ratio); higher = more soluble; settings: cell cycle stage: G1/S
HeLa Kyoto [2] = test: solubility change mitosis vs G1/S (difference of NP-40 vs SDS log2 ratios) (log2 ratio difference); higher = more soluble in mitosis
HeLa Kyoto [3] = test: thermal stability score vs G1/S (z-score of summed log2 fold changes over temperatures); higher = more thermally stable than in G1/S
HeLa Kyoto [4] = test: melting temperature (median over replicates), in situ; higher = more thermally stable
[5] = cell cycle stage: early G1 (4.5 h after nocodazole release)
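Wherever melting temperature (median over replicates), in situ is given: HeLa Kyoto cells synchronized by double thymidine or nocodazole block, proteins quantified by TMT10plex mass spectrometry, three independent biological replicates.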
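Wherever solubility change mitosis vs G1/S (difference of NP-40 vs SDS log2 ratios) is given: synchronized HeLa Kyoto cells (double thymidine block for G1/S, nocodazole release for mitosis), protein amounts in NP-40 versus SDS lysates quantified by mass spectrometry, three biological replicates.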
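Wherever solubility in G1/S (NP-40 vs SDS abundance) is given: HeLa Kyoto cells arrested at G1/S by double thymidine block, proteins quantified by TMT10plex mass spectrometry in mild NP-40 versus SDS extracts, three biological replicates.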
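Wherever thermal stability score vs G1/S (z-score of summed log2 fold changes over temperatures) is given: synchronized HeLa Kyoto cells, proteins quantified by TMT10plex mass spectrometry, three biological replicates, mitosis taken 0.5 h after nocodazole release, G1/S directly after double thymidine block.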

Sequence	solubility in G1/S (log2) (HeLa Kyoto [1])	solubility change mitosis (log2) (HeLa Kyoto [2])	thermal stability score (HeLa Kyoto [3]; [5])	thermal stability score (HeLa Kyoto [3]; cell cycle stage: mitosis)	melting temperature (HeLa Kyoto [4]; cell cycle stage: G1/S)	melting temperature (HeLa Kyoto [4]; cell cycle stage: mitosis)
MATQADLMELDMAMEPDRKAAVSHWQQQSYLDSGIHSGATTTAPSLSGKGNPEEEDVDTSQVLYEWEQGFSQSFTQEQVADIDGQYAMTRAQRVRAAMFPETLDEGMQIPSTQFDAAHPTNVQRLAEPSQMLKHAVVNLINYQDDAELATRAIPELTKLLNDEDQVVVNKAAVMVHQLSKKEASRHAIMRSPQMVSAIVRTMQNTNDVETARCTAGTLHNLSHHREGLLAIFKSGGIPALVKMLGSPVDSVLFYAITTLHNLLLHQEGAKMAVRLAGGLQKMVALLNKTNVKFLAITTDCLQILAYGNQESKLIILASGGPQALVNIMRTYTYEKLLWTTSRVLKVLSVCSSNKPAIVEAGGMQALGLHLTDPSQRLVQNCLWTLRNLSDAATKQEGMEGLLGTLVQLLGSDDINVVTCAAGILSNLTCNNYKNKMMVCQVGGIEALVRTVLRAGDREDITEPAICALRHLTSRHQEAEMAQNAVRLHYGLPVVVKLLHPPSHWPLIKATVGLIRNLALCPANHAPLREQGAIPRLVQLLVRAHQDTQRRTSMGGTQQQFVEGVRMEEIVEGCTGALHILARDVHNRIVIRGLNTIPLFVQLLYSPIENIQRVAAGVLCELAQDKEAAEAIEAEGATAPLTELLHSRNEGVATYAAAVLFRMSEDKPQDYKKRLSVELTSSLFRTEPMAWNETADLGLDIGAQGEPLGYRQDDPSYRSFHSGGYGQDALGMDPMMEHEMGGHHPGADYPVDGLPDLGHAQDLMDGLPPGDSNQLAWFDTDL [CTNNB1]	0.0555	-0.093	0.0437	0.0622	53.4 °C	52.4 °C
MSGFSPELIDYLEGKISFEEFERRREERKTREKKSLQEKGKLSAEENPDDSEVPSSSGINSTKSQDKDVNEGETSDGVRKSVHKVFASMLGENEDDEEEEEEEEEEEEEEETPEQPTAGDVFVLEMVLNRETKKMMKEKRPRSKLPRALRGLMGEANIRFARGEREEAILMCMEIIRQAPLAYEPFSTLAMIYEDQGDMEKSLQFELIAAHLNPSDTEEWVRLAEMSLEQDNIKQAIFCYTKALKYEPTNVRYLWERSSLYEQMGDHKMAMDGYRRILNLLSPSDGERFMQLARDMAKSYYEANDVTSAINIIDEAFSKHQGLVSMEDVNIAAELYISNKQYDKALEIITDFSGIVLEKKTSEEGTSEENKAPENVTCTIPDGVPIDITVKLMVCLVHLNILEPLNPLLTTLVEQNPEDMGDLYLDVAEAFLDVGEYNSALPLLSALVCSERYNLAVVWLRHAECLKALGYMERAAESYGKVVDLAPLHLDARISLSTLQQQLGQPEKALEALEPMYDPDTLAQDANAAQQELKLLLHRSTLLFSQGKMYGYVDTLLTMLAMLLKVAMNRAQVCLISSSKSGERHLYLIKVSRDKISDSNDQESANCDAKAIFAVLTSVLTKDDWWNLLLKAIYSLCDLSRFQEAELLVDSSLEYYSFYDDRQKRKELEYFGLSAAILDKNFRKAYNYIRIMVMENVNKPQLWNIFNQVTMHSQDVRHHRFCLRLMLKNPENHALCVLNGHNAFVSGSFKHALGQYVQAFRTHPDEPLYSFCIGLTFIHMASQKYVLRRHALIVQGFSFLNRYLSLRGPCQESFYNLGRGLHQLGLIHLAIHYYQKALELPPLVVEGIELDQLDLRRDIAYNLSLIYQSSGNTGMAQTLLYTYCSI [GTF3C3]	-0.231	-0.0144	2.95	5.2	45.9 °C	49.1 °C

— the supplement of paper PMC5998384
